# Test results from patent EP4722228A1, “NEW COMPOUND TARGETING MUSK AND USE THEREOF” (The University of Tokyo, priority 2023, dated 2024).
# Bridge positions count the residues as written; N and C are the ends. Square brackets hold non-standard residues; d marks the D form. Ends that are not written are not given here.
# B1: Homodimer of MuSK7 with an introduced palmitoyl group (MuSK7-pal) (peptide)
# peptide: {CH2CO}-[dY]PSYHTNVVASLKRC
# modifications: thioether N-15; also: homodimer: two peptides condensed via C-terminal Cys carboxyl with linking unit bearing palmitic acid
# Molecular target: hMuSK-Fc (chimeric protein of the secretory human MuSK extracellular portion and human IgG1 Fc) (human) (UniProt O15146)
# Assay: SPR (Biacore T200), Fc-tagged human MuSK on Protein G/A chip, 1:1 fit
# Chain of hMuSK-Fc (chimeric protein of the secretory human MuSK extracellular portion and human IgG1 Fc) (human) (O15146 24-493, change not shown, form in doubt): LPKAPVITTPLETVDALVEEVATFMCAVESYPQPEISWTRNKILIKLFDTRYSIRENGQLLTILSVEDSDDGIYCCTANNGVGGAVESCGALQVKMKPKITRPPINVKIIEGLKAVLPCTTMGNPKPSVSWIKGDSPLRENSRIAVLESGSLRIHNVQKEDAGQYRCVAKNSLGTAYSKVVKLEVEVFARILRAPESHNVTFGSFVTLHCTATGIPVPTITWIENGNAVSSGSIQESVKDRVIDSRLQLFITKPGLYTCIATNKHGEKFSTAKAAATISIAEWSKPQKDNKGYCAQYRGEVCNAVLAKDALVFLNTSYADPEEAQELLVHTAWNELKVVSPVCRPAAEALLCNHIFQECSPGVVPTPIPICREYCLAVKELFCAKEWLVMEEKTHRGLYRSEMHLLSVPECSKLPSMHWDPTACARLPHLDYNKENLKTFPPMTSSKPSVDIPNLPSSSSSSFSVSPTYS
binder,measurement,value
B1,Kd,0.9 nM
